# US20040042961
# How the values were obtained:
# [1] = tested on: GFP double loop insertion mutant at positions 157-158 and 174-175 with GGGG-LETD-GGGGG (caspase 8 sites)
# [2] = tested on: recombinant GFP-His protein (wild type GFP)
# [3] = tested on: GFP single insertion mutant K157-Q158 (GGGGFFRSGGGG inserted)
# [4] = tested on: GFP single insertion mutant T39-Y40 (GGGGFFRSGGGG inserted)
# [5] = tested on: GFP single insertion mutant G117-D118 (GGGGFFRSGGGG inserted)
# [6] = tested on: GFP single insertion mutant D174-G175 (GGGGFFRSGGGG inserted)
# [7] = tested on: GFP single insertion mutant K102-D103 (GGGGFFRSGGGG inserted)
# [8] = tested on: GFP double insertion mutant K157-Q158 and D174-G175 (cathepsin L sites)
# [9] = tested on: substitution mutants (GFP sequence substituted with FRS at various positions; fifteen fluorescent of twenty)
# Sequence of cathepsin L (chain, as listed by the source): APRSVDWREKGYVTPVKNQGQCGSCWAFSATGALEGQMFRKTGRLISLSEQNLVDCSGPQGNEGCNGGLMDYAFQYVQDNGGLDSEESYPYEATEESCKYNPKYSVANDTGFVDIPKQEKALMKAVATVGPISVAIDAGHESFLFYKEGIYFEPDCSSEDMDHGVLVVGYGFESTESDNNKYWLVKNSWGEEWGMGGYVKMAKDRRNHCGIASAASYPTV
Substance,Cleavage at sequence introduced [1],GFP fluorescence and SDS-PAGE band on incubation with 400 nM cathepsin L at pH 5.5 and 4.8 [2],Cleavage at sequence introduced [3],Cleavage at sequence introduced [4],Cleavage at sequence introduced [5],Cleavage at sequence introduced [6],Cleavage at sequence introduced [7],Cleavage at sequence introduced [8],specific cleavage (SDS-PAGE) [9]
caspase 8,(yes),,,,,,,,
cathepsin L,,"A time-dependent decrease in GFP fluorescence was observed (FIG. 10A), with concommitant disappearance of the GFP band on SDS-PAGE",Yes,Yes,No,Yes,Yes,(yes),"fifteen mutants were fluorescent and therefore properly folded, but only one of them was specifically cleaved by cathepsin L"
